Data published in patent publication US20210363269A1 (ALX ONCOLOGY, published 2021).
Values belong to the binder of their own block, whether it stands above or below them.

Legend:
[1] = biological target: T1, C57BL/6 mouse SIRP-α D1 domain (mouse (C57BL/6 strain), UniProt P97797 32-148); assay: SPR, Langmuir fit
T1 sequence: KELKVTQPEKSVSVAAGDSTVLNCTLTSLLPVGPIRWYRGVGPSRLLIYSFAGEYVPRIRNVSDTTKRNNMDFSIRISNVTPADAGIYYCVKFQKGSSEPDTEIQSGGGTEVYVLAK

human SIRPβ isoform 1 [2] = biological target: T2, human SIRPβ isoform 1 (human, UniProt O00241 30-148); assay: SPR, Langmuir fit
T2 construct: also called sirpb1; Sirpb1

human SIRPβ isoform 2 = biological target: T3, human SIRPβ isoform 2 (human, UniProt Q5TFQ8 30-148); assay: SPR, Langmuir fit
T3 construct: also called Sirpb2; beta isoform 2

[3] = biological target: T4, cynomolgus SIRP-α D1 domain (SEQ ID NO:11) (cynomolgus, UniProt Q5TFQ8 30-148 (human entry), limits assumed); assay: SPR, Langmuir fit
T4 construct: also called cyno1
T4 chain: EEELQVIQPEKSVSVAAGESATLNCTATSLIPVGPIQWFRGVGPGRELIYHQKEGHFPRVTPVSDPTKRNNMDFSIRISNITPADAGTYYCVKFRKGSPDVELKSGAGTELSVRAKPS

[4] = biological target: T5, human SIRP-α v1 D1 domain (human, UniProt P78324 31-149); assay: SPR, Langmuir fit
T5 construct: also called human v1; human α v1

[5] = biological target: T6, cynomolgus SIRP-α D1 domain (SEQ ID NO:12) (cynomolgus, UniProt Q5TFQ8 30-148 (human entry), limits assumed); assay: SPR, Langmuir fit
T6 construct: also called cyno2; Cyno2
T6 chain: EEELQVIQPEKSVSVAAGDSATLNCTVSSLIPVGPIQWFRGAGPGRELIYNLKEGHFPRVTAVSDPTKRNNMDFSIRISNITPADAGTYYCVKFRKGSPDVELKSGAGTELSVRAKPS

[6] = biological target: T7, NOD mouse SIRP-α D1 domain (mouse (NOD strain)); assay: SPR, Langmuir fit
T7 chain: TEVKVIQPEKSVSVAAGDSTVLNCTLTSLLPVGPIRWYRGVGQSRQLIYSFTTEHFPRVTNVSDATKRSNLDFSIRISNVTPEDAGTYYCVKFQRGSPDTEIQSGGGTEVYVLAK

human SIRPγ isoform 1 [7] = biological target: T8, human SIRPγ isoform 1 (human, UniProt Q9P1W8 29-147); assay: SPR, Langmuir fit
T8 construct: also called sirpg; sirp-g

[8] = biological target: T9, BALB/c mouse SIRP-α D1 domain (mouse (BALB/c strain)); assay: SPR, Langmuir fit
T9 chain: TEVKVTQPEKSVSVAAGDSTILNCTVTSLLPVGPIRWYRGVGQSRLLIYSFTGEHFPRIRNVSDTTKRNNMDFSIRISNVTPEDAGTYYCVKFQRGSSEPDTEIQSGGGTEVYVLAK

[9] = biological target: T10, human SIRP-α v2 D1 domain (human); assay: SPR, Langmuir fit
T10 construct: also called human v2; human α v2

human SIRP-α v1 = biological target: T11, human SIRP-α v1 (human, UniProt P78324 31-149); assay: SPR; fitted KD column of Table P
T11 construct: also called Human v1; Human V1
Summary of the method: (§1)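 Apparent association and dissociation rate constants, and KD as kd/ka, were obtained by global fitting of double-referenced data to a simple Langmuir model. Measurements used a ProteOn XPR36 biosensor at 25° C in PBS pH 7.4 with 0.01% Tween-20, with SIRP analytes injected in one-shot kinetic mode at nominal concentrations from A280 absorbance. The purified antibodies were either amine-coupled to a GLC chip or held on an NLC chip by biotinylated Protein A.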

human SIRPβ isoform 1 [10] = biological target: T12, human SIRPβ isoform 1 (human, UniProt O00241 30-148); assay: SPR Koff +/-
T12 construct: also called Beta; Human SIRPb
Summary of the method: as §1

human SIRP-α v2 = biological target: T13, human SIRP-α v2 (human); assay: SPR
T13 construct: also called Human v2; Human V2
Summary of the method: as §1

[11] = biological target: T1, C57BL/6 mouse SIRP-α D1 domain; assay: SPR, antibody immobilised on GLC chip
Method: (§2) All experiments were performed at 25° C. using a SPR-based ProteOn XPR36 biosensor (BioRad, Inc, Hercules, Calif.) equipped with GLC or NLC sensor chips. […] Purification was carried out by standard Protein A affinity column chromatography and eluted antibodies were stored in PBS buffer.
(§3) For the method using GLC chip, the analytes were injected and flowed over anti-SIRPα antibodies immobilized (˜1000 RUs) on GLC chips using Proteon™ Amine Coupling Kit. For the immobilization step, GLC chip was activated with EDAC/Sulpho-NHS 1:1 (Biorad) diluted 1/100 for 300 s at 25 μL/min. Anti-SIRPα antibodies were diluted to 80 nM concentration in 10 mM sodium acetate buffer pH 4.5 and immobilized to the chip at 30 μL/min for 50 s. Chip was inactivated with ethanolamine for 300 s at 25 μL/min. The analytes (e.g., SIRP-α from different species, SIRP-β, SIRP-γ) were injected in a “one-shot” kinetic mode at nominal concentrations of 100, 33, 11, 3.7, 1.2 and 0 nM. Association times were monitored for 90 s at 100 μL/min, and dissociation times were monitored for 1200 s. The surfaces were regenerated with a 2:1 v/v blend of Pierce IgG elution buffer/4M NaCl. […]

[12] = biological target: T4, cynomolgus SIRP-α D1 domain (SEQ ID …); assay: SPR, antibody immobilised on GLC chip
Method: as §2, §3

[13] = biological target: T5, human SIRP-α v1 D1 domain; assay: SPR, antibody immobilised on GLC chip
Method: as §2, §3

[14] = biological target: T7, NOD mouse SIRP-α D1 domain; assay: SPR, antibody immobilised on GLC chip
Method: as §2, §3

human SIRPγ isoform 1 [15] = biological target: T8, human SIRPγ isoform 1; assay: SPR, antibody immobilised on GLC chip
Method: as §2, §3

[16] = biological target: T9, BALB/c mouse SIRP-α D1 domain; assay: SPR, antibody immobilised on GLC chip
Method: as §2, §3

[17] = biological target: T10, human SIRP-α v2 D1 domain; assay: SPR, antibody immobilised on GLC chip
Method: as §2, §3

human SIRPγ isoform 1 [18] = biological target: T14, human SIRPγ isoform 1 (human, UniProt Q9P1W8 29-147); assay: ELISA, target coated on the plate, scFv-Fc titrated from 0.008 to about 1 µg/ml, OD 405
T14 construct: also called human SIRP-γ v1; sirpg
Method: (§4) ELISA assays were carried out to screen binding of antibody clones to SIRP analytes and SIRP-α:CD47 complex. […] Plates were blocked with PBS™ (Phosphate Buffered Saline pH 7.4, 0.05% Tween®20 polysorbate, 3% milk), 50 ul of supernatant containing the secreted scFv-Fc are added for 1 hr at room temp. Plates were washed with PBST. 50 ul of anti-hFc-HRP (1:5000 Rockland 609-4303) added for 1 hr at room temp. Plates were washed with PBST. TMB was developed for 5 min and stopped with 1N HCl. ELISA results were read using BioTek Synergy H1 Hybrid Reader. The corresponding proteins used for the assay and described here are: human SIRPα V1 (SEQ ID NO: 5); human SIRPα V2 (SEQ ID NO:6); cynomolgus SIRPα (SEQ ID NO:11); mouse NOD SIRPα (SEQ ID NO: 8); human SIRPγ (SEQ ID NO: 15); CD47 (SEQ ID NO: 16); high affinity SIRPα V1 (SEQ ID NO: 42); high affinity SIRPα V2 (SEQ ID NO:17).

[19] = biological target: T15, human SIRP-α v2 D1 domain (human); assay: as above
T15 construct: biotinylated and captured on avidin in the ELISA; also called human v2
Method: as §4

[20] = biological target: T16, NOD mouse SIRP-α D1 domain (mouse (NOD strain)); assay: as above
T16 construct: also called mouse NOD SIRPα
T16 chain: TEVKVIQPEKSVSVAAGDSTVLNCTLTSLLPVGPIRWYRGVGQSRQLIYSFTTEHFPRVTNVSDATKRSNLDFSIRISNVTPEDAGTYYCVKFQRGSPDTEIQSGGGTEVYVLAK
Method: as §4

[21] = biological target: T4, cynomolgus SIRP-α D1 domain (SEQ ID …); assay: SPR, antibody immobilised on GLC chip
[22] = biological target: T5, human SIRP-α v1 D1 domain; assay: SPR, antibody immobilised on GLC chip; remark: listed apart in the source
[23] = biological target: T10, human SIRP-α v2 D1 domain; assay: SPR, antibody immobilised on GLC chip; Table M cell, 119 Mut/mut on human v2
Summary of the method: (§5)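 On a ProteOn XPR36 biosensor, Protein A-purified antibodies were amine-coupled to a GLC chip at about ~1000 RU after dilution to 80 nM in 10 mM sodium acetate pH 4.5. SIRP analytes at 100, 33, 11, 3.7, 1.2 and 0 nM were then injected one-shot in PBS pH 7.4 containing 0.01% Tween-20 at 25° C, with 90 s of association at 100 μL/min and 1200 s of dissociation. The dissociation constant (KD) was calculated as kd/ka from a global Langmuir fit of double-referenced data.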

[24] = biological target: T15, human SIRP-α v2 D1 domain; assay: SPR, antibody immobilised on GLC chip; sentence of the text that cites Table M
Summary of the method: as §5

[25] = biological target: T17, human SIRP-α v1 D1 domain (human, UniProt P78324 31-149); assay: as above
T17 construct: biotinylated and captured on avidin in the ELISA; also called human v1
Summary of the method: as §5

T11 sequence (P78324 31-149 limits assumed): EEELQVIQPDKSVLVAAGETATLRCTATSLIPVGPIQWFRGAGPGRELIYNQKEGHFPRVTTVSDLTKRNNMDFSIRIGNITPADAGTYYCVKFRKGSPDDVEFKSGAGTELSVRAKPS
T3 sequence (Q5TFQ8 30-148 limits assumed): as the sequence (P78324 31-149 limits assumed) above, with V13I, L14S, T20S, R24H, A27V, G79S, D101H counted along it
T13 sequence (chain, as listed by the source limits assumed): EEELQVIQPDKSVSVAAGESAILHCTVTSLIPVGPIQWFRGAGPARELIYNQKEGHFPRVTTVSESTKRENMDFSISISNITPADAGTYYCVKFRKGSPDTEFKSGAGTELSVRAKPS

Kd [1]: 3.65 nM
Kd (human SIRPβ isoform 1 [2]): 1.63 nM
Kd (human SIRPβ isoform 2): 0.0678 nM
Kd [3]: 2.29 nM
Kd [4]: 0.162 nM
Kd [5]: 2.85 nM
Kd [6]: 1.63 nM
Kd (human SIRPγ isoform 1 [7]): 83.6 nM
Kd [8]: 1.16 nM
Kd [9]: 0.0767 nM
B1: AB3 (as in Table J1) (antibody, V domains shown)
VH: AVTLDESGGGLQTPGGALSLVCKASGFIFSDYGMNWVRQAPGKGLEFVAQITSGSRTYYGAAVKGRATISRDNRQSTVKLQLNNLRAEDTGIYFCARDFGSGVGSIDAWGNGTEVIVSS
VL: ALTQPASVSANLGGTVKITCSGSRGRYGWYQQRSPGSAPVTVIYRDNQRPSNIPSRFSSSTSGSTSTLTITGVQADDESVYFCGSYDGSIDIFGAGTTLTVL
notes: also called antibody 3

Kd (human SIRP-α v1): 6.05 nM
binding result (human SIRPβ isoform 1 [10]): no binding
Kd (human SIRP-α v2): 1.69 nM
B2: antibody 213 (antibody, V domains shown)
VH: DVQLVESGGGVVRPGESLRLSCEASGFTFRNYYMTWVRQAPGEGLEWVSTISDTGDTAYYADSVKGRFTISRDNSKNSLYLQMNSLRADDTAIYYCAKSWIWWTFFDYWGLGTLVTVSS
VL: ALTQPASVSANLGGTVEITCSGGNSNHYGWYQQKSPGSAPVTLIYADTNRPSNIPSRFSGSTSGSTTTLTITGVQAEDEAVYYCGGSSTGDGIFGAGTTLTVL
notes: also called S213

Kd [11]: 13.8 nM
Kd [12]: 2.11 nM
Kd [13]: 0.551 nM
Kd [14]: 0.596 nM
Kd (human SIRPγ isoform 1 [15]): 33.5 nM
Kd [16]: 0.361 nM
Kd [17]: 1.74 nM
B3: antibody 136 variant MutRv_I2T/mut_V34M (antibody, human IgG1, V domains shown)
VH: EVQLVESGGGVVQPGRSLRLSCAASGFTFSSYDMNWVRQAPGKGLEWVSLISGSGEIIYYADSVKGRFTISRDNSKNTLYLQMNSLRAEDTAVYYCAKENNRYRFFDDWGQGTLVTVSS
VL: ETVLTQSPGTLSLSPGERATLSCRASQSVYTYLAWYQQKPGQAPRLLIYGASSRATGIPDRFSGSGSGTEFTLTISSLQSEDFAVYYCQQYYDRPPLTFGGGTKVEIK
notes: Human IgG1 with L234A/L235A/G237A/N297A; Labels are light chain/heavy chain

binding result (human SIRPγ isoform 1 [18]): no binding (tested: about 1 µg/ml)
binding result [19]: no binding (tested: about 1 µg/ml)
binding result [20]: no binding (tested: about 1 µg/ml)
B4: S138 (scFv)
scFv: EIVLTQSPGTLSVSPGERVILTCRASQSVDTYNLAWYQQKPGQAPRLLIYDLSTRATGIPDRFSGSGSGTEFTLTINSLEPEDFAVYYCHQYYDWPPYTFGGGTKVEIKGQSSRSSGGGGSSGGGGSDVQLVESGGGVVRPGESLRLSCAASGFTFSNYAMNWVRQAPGEGLEWVSGISGRGGDTYYADSVKGRFTISRDNSKNTLYLQMNSLRAEDTAIYYCAKGTWNYGSFDYWGLGTLVTVSSSLDPKSSDKTDTCPPCPAPELLGGPSVFLFPPKPKDTLMISRTPEVTCVVVDVSHEDPEVKFNWYVDGV
notes: also called clone S138

Kd [21]: 0.195 nM
Kd [22]: 0.317 nM
Kd [23]: 0.0875 nM
B5: antibody 119 variant Mut/mut (VL mut all / VH mut) (antibody, human IgG1, V domains shown)
VH: EVQLLESGGGVVQPGGSLRLSCAASGFSFSNFAVTWVRQAPGKGLEWVSTIGSGDTYYADSVKGRFTISRDNSKNTLYLQMNSLRAEDTAVYYCAKDSTVSWSGDFFDYWGQGTLVTVSS
VL: EIVLTQSPATLSVSPGERATLSCRASQNVKNDLAWYQQKPGQAPRLLIYAARIRETGIPARFSGSGSGTEFTLTISSLQSEDFAVYYCQQYYDWPPFTFGGGTKVEIK
notes: Human IgG1 with L234A/L235A/G237A/N297A; Labels are in the order VL/VH

Kd [24]: 0.0875 nM
Kd [25]: 0.317 nM
B6: 119 antibody variant with mutated heavy and light chains (antibody, human IgG1, V domains shown)
VH: EVQLLESGGGVVQPGGSLRLSCAASGFSFSNFAVTWVRQAPGKGLEWVSTIGSGDTYYADSVKGRFTISRDNSKNTLYLQMNSLRAEDTAVYYCAKDSTVSWSGDFFDYWGQGTLVTVSS
VL: EIVLTQSPATLSVSPGERATLSCRASQNVKNDLAWYQQKPGQAPRLLIYAARIRETGIPARFSGSGSGTEFTLTISSLQSEDFAVYYCQQYYDWPPFTFGGGTKVEIK
notes: human IgG1 with L234A, L235A, G237A, N297A
